US20250326839A1 (VIGIL NEUROSCIENCE, published 2025)
Residue numbers refer to the chain shown, from its start.

T1: human TREM2 (human, UniProt Q9NZC2 19-174, limits assumed)
T1 construct: also called triggering receptor expressed on myeloid cells 2
T1 sequence: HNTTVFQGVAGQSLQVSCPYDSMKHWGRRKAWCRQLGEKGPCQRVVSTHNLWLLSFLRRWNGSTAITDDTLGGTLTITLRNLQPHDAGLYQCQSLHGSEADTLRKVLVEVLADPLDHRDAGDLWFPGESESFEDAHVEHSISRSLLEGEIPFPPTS

B1: V1 (antibody, V domains shown)
VH: EVQLVQSGAEVKKPGESLKISCKGSGYSFTSSWIAWVRQMPGKGLEWMGIIYPGDSDTRYSPSFQGQVTISADKSISTAYLQWSSLKASDTAMYFCARSRTFYYDSSDYFDYWGQGTLVTVSS
VL: DIQMTQSPSSVSASVGDRVTITCRASQGISSWLAWYQQKPGKAPKLLIYAASSLTNGVPSRFSGSGSGTDFTLTISSLQPEDFATYFCQQADSYPRTFGQGTKLEIK
notes: also called 6E7 variant V1
B2: V2 (antibody, V domains shown)
VH: B1 VH with Y27S, S32Y, S56G
VL: B1 VL with L54R, T55Q, S93R, Y94F
notes: also called 6E7 variant V2
B3: V3 (antibody, V domains shown)
VH: B1 VH with T30A, S32Y, G66D, S99G
VL: B1 VL with L54R, T55Q, S93R, Y94F
notes: also called 6E7 variant V3; LV-101/HV-101
B4: V4 (antibody, V domains shown)
VH: B1 VH with T30G, S32Y, Y60V
VL: B1 VL with S53R, T55Q
notes: also called 6E7 variant V4
B5: V5 (antibody, V domains shown)
VH: B1 VH with S32Y, I50T, S99Q
VL: B1 VL with T55Q, Y94H
notes: also called 6E7 variant V5
B6: V13 (antibody, V domains shown)
VH: B1 VH with T30G, S32Y, P62A, S99G
VL: B1 VL with T55Q, N56G, Y94M
notes: also called 6E7 variant V13
B7: V14 (antibody, V domains shown)
VH: B1 VH with T30G, S32Y, S56Q, S99G
VL: B1 VL with S53R, T55Q, Y94F
notes: also called 6E7 variant V14
B8: V15 (antibody, V domains shown)
VH: B1 VH with T30A, S32Y, I50T
VL: B1 VL with S53W, T55Q
notes: also called 6E7 variant V15
B9: V16 (antibody, V domains shown)
VH: B1 VH with F29M, S32Y, S56G
VL: B1 VL with S53N, T55Q, Y94F
notes: also called 6E7 variant V16
B10: V17 (antibody, V domains shown)
VH: B1 VH with T30G, S32Y
VL: B1 VL with L54R, T55Q, Y94S
notes: also called 6E7 variant V17
B11: V44 (antibody, V domains shown)
VH: B1 VH with S32Y, G54S, S99Q
VL: B1 VL with T55Q, Y94F
notes: also called 6E7 variant V44; LV-16/HV-204
B12: V45 (antibody, V domains shown)
VH: B1 VH with S32Y, S99Q
VL: B1 VL with W32F, T55Q, Y94F
notes: also called 6E7 variant V45
B13: V46 (antibody, V domains shown)
VH: B1 VH with S32Y, S99Q
VL: B1 VL with S53T, T55Q, Y94F
notes: also called 6E7 variant V46
B14: V47 (antibody, V domains shown)
VH: B1 VH with S32Y, S99Q
VL: B1 VL with T55Q, Y94F, R96M
notes: also called 6E7 variant V47
B15: V54 (antibody, V domains shown)
VH: B1 VH with S32Q, S99Q
VL: B1 VL with T55Q, Y94F
notes: also called 6E7 variant V54
B16: V55 (antibody, V domains shown)
VH: B1 VH with S32Y, R59I, F64H, S99Q
VL: B1 VL with T55Q, Y94F
notes: also called 6E7 variant V55
B17: V56 (antibody, V domains shown)
VH: B1 VH with S32Y, S61Q, S99Q
VL: B1 VL with T55Q, Y94F
notes: also called 6E7 variant V56
B18: V57 (antibody, V domains shown)
VH: B1 VH with S32Y, S99Q
VL: B1 VL with R24A, T55Q, Y94F
notes: also called 6E7 variant V57; LV-203/HV-15
B19: V58 (antibody, V domains shown)
VH: B1 VH with S32Y, S99Q
VL: B1 VL with A50K, T55Q, Y94F
notes: also called 6E7 variant V58
B20: V59 (antibody, V domains shown)
VH: B1 VH with S32Y, S99Q
VL: B1 VL with T55Q, Q89M, Y94F
notes: also called 6E7 variant V59
B21: V66 (antibody, V domains shown)
VH: B1 VH with Y27T, S32Y, S99Q
VL: B1 VL with T55Q, Y94F
notes: also called 6E7 variant V66
B22: V67 (antibody, V domains shown)
VH: B1 VH with S32Y, I50M, S99Q
VL: B1 VL with T55Q, Y94F
notes: also called 6E7 variant V67
B23: V68 (antibody, V domains shown)
VH: B1 VH with S32Y, S99Q, Y103R
VL: B1 VL with T55Q, Y94F
notes: also called 6E7 variant V68
B24: V69 (antibody, V domains shown)
VH: B1 VH with S32Y, S99Q
VL: B1 VL with W32Y, T55Q, Y94F
notes: also called 6E7 variant V69
B25: V70 (antibody, V domains shown)
VH: B1 VH with S32Y, S99Q
VL: B1 VL with S52G, T55Q, Y94F
notes: also called 6E7 variant V70; LV-204/HV-15
B26: V71 (antibody, V domains shown)
VH: B1 VH with S32Y, S99Q
VL: B1 VL with T55Q, Y94E
notes: also called 6E7 variant V71
B27: V78 (antibody, V domains shown)
VH: B1 VH with S28R, S32Y, S99Q
VL: B1 VL with T55Q, Y94F
notes: also called 6E7 variant V78
B28: V79 (antibody, V domains shown)
VH: B1 VH with S32Y, R59N, S99Q
VL: B1 VL with T55Q, Y94F
notes: also called 6E7 variant V79
B29: V80 (antibody, V domains shown)
VH: B1 VH with S32Y, S99Q, T101N
VL: B1 VL with T55Q, Y94F
notes: also called 6E7 variant V80
B30: V81 (antibody, V domains shown)
VH: B1 VH with S32Y, S99Q
VL: B1 VL with W32L, T55Q, Y94F
notes: also called 6E7 variant V81
B31: V82 (antibody, V domains shown)
VH: B1 VH with S32Y, S99Q
VL: B1 VL with A51G, T55Q, Y94F
notes: also called 6E7 variant V82
B32: V83 (antibody, V domains shown)
VH: B1 VH with S32Y, S99Q
VL: B1 VL with T55Q, D92V, Y94F
notes: also called 6E7 variant V83
B33: V90 (antibody, V domains shown)
VH: B1 VH with S32E, S99Q
VL: B1 VL with S31R, T55Q, Y94F
notes: also called 6E7 variant V90; LV-206/HV-206
B34: V91 (antibody, V domains shown)
VH: B1 VH with S32Y, G54D, S99Q
VL: B1 VL with T55Q, Y94F
notes: also called 6E7 variant V91
B35: V92 (antibody, V domains shown)
VH: B1 VH with S32Y, S99Q, Y103H
VL: B1 VL with T55Q, Y94F
notes: also called 6E7 variant V92
B36: V93 (antibody, V domains shown)
VH: B1 VH with S32Y, S99Q
VL: B1 VL with S31G, T55Q, Y94F
notes: also called 6E7 variant V93
B37: V94 (antibody, V domains shown)
VH: B1 VH with S32Y, S99Q
VL: B1 VL with S52A, T55Q, Y94F
notes: also called 6E7 variant V94
B38: V12 (antibody, V domains shown)
VH: B1 VH with S28E, S32Y, T58V, S99G
VL: B1 VL with T55Q, N56R, Y94F
notes: also called 6E7 variant V12

Target: T1, human TREM2
Experiment: 2nd screen, 2 nM

| Binding Signal | Binder |
| --- | --- |
| 1.29 fold over 6E7 parental antibody | B1 |
| 2.23 fold over 6E7 parental antibody | B2 |
| 1.95 fold over 6E7 parental antibody | B3 |
| 5.88 fold over 6E7 parental antibody | B4 |
| 1.25 fold over 6E7 parental antibody | B5 |
| 1.15 fold over 6E7 parental antibody | B6 |
| 2.57 fold over 6E7 parental antibody | B7 |
| 4.72 fold over 6E7 parental antibody | B8 |
| 3.57 fold over 6E7 parental antibody | B9 |
| 4.22 fold over 6E7 parental antibody | B10 |

Target: T1, human TREM2
Experiment: 2nd screen, 100 nM

| Binding Signal | Binder |
| --- | --- |
| 0.52 fold over 6E7 parental antibody | B11 |
| 0.53 fold over 6E7 parental antibody | B12 |
| 0.96 fold over 6E7 parental antibody | B13 |
| 0.47 fold over 6E7 parental antibody | B14 |
| 0.54 fold over 6E7 parental antibody | B15 |
| 0.66 fold over 6E7 parental antibody | B16 |
| 0.59 fold over 6E7 parental antibody | B17 |
| 0.85 fold over 6E7 parental antibody | B18 |
| 0.68 fold over 6E7 parental antibody | B19 |
| 0.6 fold over 6E7 parental antibody | B20 |
| 0.74 fold over 6E7 parental antibody | B21 |
| 0.84 fold over 6E7 parental antibody | B22 |
| 0.43 fold over 6E7 parental antibody | B23 |
| 0.4 fold over 6E7 parental antibody | B24 |
| 0.84 fold over 6E7 parental antibody | B25 |
| 0.48 fold over 6E7 parental antibody | B26 |
| 1.11 fold over 6E7 parental antibody | B27 |
| 0.52 fold over 6E7 parental antibody | B28 |
| 0.5 fold over 6E7 parental antibody | B29 |
| 0.23 fold over 6E7 parental antibody | B30 |
| 0.79 fold over 6E7 parental antibody | B31 |
| 0.29 fold over 6E7 parental antibody | B32 |
| 0.36 fold over 6E7 parental antibody | B33 |
| 0.61 fold over 6E7 parental antibody | B34 |
| 0.65 fold over 6E7 parental antibody | B35 |
| 1.05 fold over 6E7 parental antibody | B36 |
| 0.87 fold over 6E7 parental antibody | B37 |

Target: T1, human TREM2
Experiment: 1st screen, 110 nM Ab

| Binding Signal | Binder |
| --- | --- |
| 0.65 fold over 6E7 parental antibody | B11 |
| 0.43 fold over 6E7 parental antibody | B12 |
| 0.83 fold over 6E7 parental antibody | B13 |
| 0.42 fold over 6E7 parental antibody | B14 |
| 0.55 fold over 6E7 parental antibody | B15 |
| 0.24 fold over 6E7 parental antibody | B16 |
| 0.23 fold over 6E7 parental antibody | B17 |
| 0.84 fold over 6E7 parental antibody | B18 |
| 0.28 fold over 6E7 parental antibody | B19 |
| 0.19 fold over 6E7 parental antibody | B20 |
| 0.25 fold over 6E7 parental antibody | B21 |
| 0.8 fold over 6E7 parental antibody | B22 |
| 0.44 fold over 6E7 parental antibody | B23 |
| 0.41 fold over 6E7 parental antibody | B24 |
| 0.79 fold over 6E7 parental antibody | B25 |
| 0.37 fold over 6E7 parental antibody | B26 |
| 0.86 fold over 6E7 parental antibody | B27 |
| 0.7 fold over 6E7 parental antibody | B28 |
| 0.59 fold over 6E7 parental antibody | B29 |
| 0.17 fold over 6E7 parental antibody | B30 |
| 0.3 fold over 6E7 parental antibody | B31 |
| 0.2 fold over 6E7 parental antibody | B32 |
| 0.33 fold over 6E7 parental antibody | B33 |
| 0.25 fold over 6E7 parental antibody | B34 |
| 0.22 fold over 6E7 parental antibody | B35 |
| 0.35 fold over 6E7 parental antibody | B36 |
| 0.31 fold over 6E7 parental antibody | B37 |

Target: T1, human TREM2
Experiment: 1st screen, 10 nM Ab

| Binding Signal | Binder |
| --- | --- |
| 1.68 fold over 6E7 parental antibody | B1 |
| 2.55 fold over 6E7 parental antibody | B2 |
| 1.97 fold over 6E7 parental antibody | B3 |
| 6 fold over 6E7 parental antibody | B4 |
| 2.73 fold over 6E7 parental antibody | B5 |
| 1.31 fold over 6E7 parental antibody | B6 |
| 4.71 fold over 6E7 parental antibody | B7 |
| 5.23 fold over 6E7 parental antibody | B8 |
| 4.01 fold over 6E7 parental antibody | B9 |
| 5.37 fold over 6E7 parental antibody | B10 |

Target: T1, human TREM2
Experiment: 2nd screen, 10 nM

| Binding Signal | Binder |
| --- | --- |
| 1.92 fold over 6E7 parental antibody | B1 |
| 2.9 fold over 6E7 parental antibody | B2 |
| 2.24 fold over 6E7 parental antibody | B3 |
| 5.51 fold over 6E7 parental antibody | B4 |
| 2.84 fold over 6E7 parental antibody | B5 |
| 2.58 fold over 6E7 parental antibody | B38 |
| 1.35 fold over 6E7 parental antibody | B6 |
| 4.64 fold over 6E7 parental antibody | B7 |
| 4.78 fold over 6E7 parental antibody | B8 |
| 4.04 fold over 6E7 parental antibody | B9 |
| 5.51 fold over 6E7 parental antibody | B10 |
